Measurements from patent publication US20240301031A1 (JIANGSU HENGRUI PHARMACEUTICALS, published 2024).

B1: TACI-4 Fc (Fc fusion)
chain: GGRSRVDQEERFPQGLWTGVAMRSCPEEQYWDPLLGTCMSCKTICNHQSQRTCAAFCRSLSCRKEQGKFYDHLLRDCISCASICGQHPKQCAYFCENKLRSPVNLPPELRKQRSGEVENNSDNSGKYQGLEHRGSEASPALPGLKLSADQVALVYSDKTHTCPPCPAPEAEGAPSVFLFPPKPKDTLMISRTPEVTCVVVDVSHEDPEVKFNWYVDGVEVHNAKTKPREEQYNSTYRVVSVLTVLHQDWLNGKEYKCKVSNKALPSSIEKTISKAKGQPREPQVYTLPPSRDELTKNQVSLTCLVKGFYPSDIAVEWESNGQPENNYKTTPPVLDSDGSFFLYSKLTVDKSRWQQGNVFSCSVMHEALHNHYTQKSLSLSPGK
notes: two identical polypeptides
B2: TACI-7 Fc (Fc fusion)
chain: FPQGLWTGVAMRSCPEEQYWDPLLGTCMSCKTICNHQSQRTCAAFCRSLSCRKEQGKFYDHLLRDCISCASICGQHPKQCAYFCENKLRSPVNLPPDKTHTCPPCPAPEAEGAPSVFLFPPKPKDTLMISRTPEVTCVVVDVSHEDPEVKFNWYVDGVEVHNAKTKPREEQYNSTYRVVSVLTVLHQDWLNGKEYKCKVSNKALPSSIEKTISKAKGQPREPQVYTLPPSRDELTKNQVSLTCLVKGFYPSDIAVEWESNGQPENNYKTTPPVLDSDGSFFLYSKLTVDKSRWQQGNVFSCSVMHEALHNHYTQKSLSLSPGK
notes: two identical polypeptides
B3: TACI-8 Fc (Fc fusion)
chain: SLSCRKEQGKFYDHLLRDCISCASICGQHPKQCAYFCENKLRSPVNLPPELRKQRSGEVENNSDNSGKYQGLEHRGSEASPALPGLKLSADQVALVYSDKTHTCPPCPAPEAEGAPSVFLFPPKPKDTLMISRTPEVTCVVVDVSHEDPEVKFNWYVDGVEVHNAKTKPREEQYNSTYRVVSVLTVLHQDWLNGKEYKCKVSNKALPSSIEKTISKAKGQPREPQVYTLPPSRDELTKNQVSLTCLVKGFYPSDIAVEWESNGQPENNYKTTPPVLDSDGSFFLYSKLTVDKSRWQQGNVFSCSVMHEALHNHYTQKSLSLSPGK
notes: two identical polypeptides
B4: TACI-1 Fc (Fc fusion)
chain: SGLGRSRKGGKSRVDQEERFPQGLWTGVAMRSCPEEQYWDPLLGTCMSCKTICNHQSQRTCAAFCRSLSCRKEQGKFYDHLLRDCISCASICGQHPKQCAYFCENKLRSPVNLPPELRKQRSGEVEQNSDNSGKYQGLEHRGSEASPALPGLKLSADQVALVYSDKTHTCPPCPAPEAEGAPSVFLFPPKPKDTLMISRTPEVTCVVVDVSHEDPEVKFNWYVDGVEVHNAKTKPREEQYNSTYRVVSVLTVLHQDWLNGKEYKCKVSNKALPSSIEKTISKAKGQPREPQVYTLPPSRDELTKNQVSLTCLVKGFYPSDIAVEWESNGQPENNYKTTPPVLDSDGSFFLYSKLTVDKSRWQQGNVFSCSVMHEALHNHYTQKSLSLSPGK
notes: two identical polypeptides
B5: TACI-3 Fc (Fc fusion)
chain: SGLGRSRKGGKSRVDQEERFPQGLWTGVAMRSCPEEQYWDPLLGTCMSCKTICNHQSQRTCAAFCRSLSCRKEQGKFYDHLLRDCISCASICGQHPKQCAYFCENKLRSPVNLPPELRKQRSGEVEDKTHTCPPCPAPEAEGAPSVFLFPPKPKDTLMISRTPEVTCVVVDVSHEDPEVKFNWYVDGVEVHNAKTKPREEQYNSTYRVVSVLTVLHQDWLNGKEYKCKVSNKALPSSIEKTISKAKGQPREPQVYTLPPSRDELTKNQVSLTCLVKGFYPSDIAVEWESNGQPENNYKTTPPVLDSDGSFFLYSKLTVDKSRWQQGNVFSCSVMHEALHNHYTQKSLSLSPGK
notes: two identical polypeptides
B6: TACI-2 Fc (Fc fusion)
chain: SGLGRSRKGGKSRVDQEERFPQGLWTGVAMRSCPEEQYWDPLLGTCMSCKTICNHQSQRTCAAFCRSLSCRKEQGKFYDHLLRDCISCASICGQHPKQCAYFCENKLRSPVNLPPELRKQRSGEVENNSDNSGDKTHTCPPCPAPEAEGAPSVFLFPPKPKDTLMISRTPEVTCVVVDVSHEDPEVKFNWYVDGVEVHNAKTKPREEQYNSTYRVVSVLTVLHQDWLNGKEYKCKVSNKALPSSIEKTISKAKGQPREPQVYTLPPSRDELTKNQVSLTCLVKGFYPSDIAVEWESNGQPENNYKTTPPVLDSDGSFFLYSKLTVDKSRWQQGNVFSCSVMHEALHNHYTQKSLSLSPGK
notes: two identical polypeptides
B7: TACI-5 Fc (Fc fusion)
chain: GGRSRVDQEERFPQGLWTGVAMRSCPEEQYWDPLLGTCMSCKTICNHQSQRTCAAFCRSLSCRKEQGKFYDHLLRDCISCASICGQHPKQCAYFCENKLRSPVNLPPELRKQRSGEVENNSDNSGDKTHTCPPCPAPEAEGAPSVFLFPPKPKDTLMISRTPEVTCVVVDVSHEDPEVKFNWYVDGVEVHNAKTKPREEQYNSTYRVVSVLTVLHQDWLNGKEYKCKVSNKALPSSIEKTISKAKGQPREPQVYTLPPSRDELTKNQVSLTCLVKGFYPSDIAVEWESNGQPENNYKTTPPVLDSDGSFFLYSKLTVDKSRWQQGNVFSCSVMHEALHNHYTQKSLSLSPGK
notes: two identical polypeptides
B8: TACI-6 Fc (Fc fusion)
chain: GGRSRVDQEERFPQGLWTGVAMRSCPEEQYWDPLLGTCMSCKTICNHQSQRTCAAFCRSLSCRKEQGKFYDHLLRDCISCASICGQHPKQCAYFCENKLRSPVNLPPELRKQRSGEVEDKTHTCPPCPAPEAEGAPSVFLFPPKPKDTLMISRTPEVTCVVVDVSHEDPEVKFNWYVDGVEVHNAKTKPREEQYNSTYRVVSVLTVLHQDWLNGKEYKCKVSNKALPSSIEKTISKAKGQPREPQVYTLPPSRDELTKNQVSLTCLVKGFYPSDIAVEWESNGQPENNYKTTPPVLDSDGSFFLYSKLTVDKSRWQQGNVFSCSVMHEALHNHYTQKSLSLSPGK
notes: two identical polypeptides
B9: TACI-9-1Fc (Fc fusion)
chain: STSCRKEQGKFYDHLLRDCISCASICGQHPKQCAYFCENKLDKTHTCPPCPAPEAEGAPSVFLFPPKPKDTLMISRTPEVTCVVVDVSHEDPEVKFNWYVDGVEVHNAKTKPREEQYNSTYRVVSVLTVLHQDWLNGKEYKCKVSNKALPSSIEKTISKAKGQPREPQVYTLPPSRDELTKNQVSLTCLVKGFYPSDIAVEWESNGQPENNYKTTPPVLDSDGSFFLYSKLTVDKSRWQQGNVFSCSVMHEALHNHYTQKSLSLSPGK
notes: two identical polypeptides
B10: TACI-9-2Fc (Fc fusion)
chain: SLSCSKEQGKFYDHLLRDCISCASICGQHPKQCAYFCENKLDKTHTCPPCPAPEAEGAPSVFLFPPKPKDTLMISRTPEVTCVVVDVSHEDPEVKFNWYVDGVEVHNAKTKPREEQYNSTYRVVSVLTVLHQDWLNGKEYKCKVSNKALPSSIEKTISKAKGQPREPQVYTLPPSRDELTKNQVSLTCLVKGFYPSDIAVEWESNGQPENNYKTTPPVLDSDGSFFLYSKLTVDKSRWQQGNVFSCSVMHEALHNHYTQKSLSLSPGK
notes: two identical polypeptides
B11: TACI-9-3Fc (Fc fusion)
chain: SLSCREEQGKFYDHLLRDCISCASICGQHPKQCAYFCENKLDKTHTCPPCPAPEAEGAPSVFLFPPKPKDTLMISRTPEVTCVVVDVSHEDPEVKFNWYVDGVEVHNAKTKPREEQYNSTYRVVSVLTVLHQDWLNGKEYKCKVSNKALPSSIEKTISKAKGQPREPQVYTLPPSRDELTKNQVSLTCLVKGFYPSDIAVEWESNGQPENNYKTTPPVLDSDGSFFLYSKLTVDKSRWQQGNVFSCSVMHEALHNHYTQKSLSLSPGK
notes: two identical polypeptides
B12: TACI-9-4Fc (Fc fusion)
chain: SLSCRQEQGKFYDHLLRDCISCASICGQHPKQCAYFCENKLDKTHTCPPCPAPEAEGAPSVFLFPPKPKDTLMISRTPEVTCVVVDVSHEDPEVKFNWYVDGVEVHNAKTKPREEQYNSTYRVVSVLTVLHQDWLNGKEYKCKVSNKALPSSIEKTISKAKGQPREPQVYTLPPSRDELTKNQVSLTCLVKGFYPSDIAVEWESNGQPENNYKTTPPVLDSDGSFFLYSKLTVDKSRWQQGNVFSCSVMHEALHNHYTQKSLSLSPGK
notes: two identical polypeptides

What follows are binders tested against T1, human BAFF (10056-HNCH, Sino biological) (human, UniProt Q9Y275 134-285) (assay: competition ELISA: biotin-labeled BAFF to coated BAFF-R).
T1 construct: Bought protein
Procedure: The blocking activity of the antibodies and the fusion proteins for receptors and ligands such as BAFF/BAFF-R, BAFF/BCMA, BAFF/TACI, APRIL/BCMA, APRIL/TACI, and p40/IL-12R1 was assayed by the ELISA method. The specific procedures were as follows:
A receptor protein was diluted to 2 μg/mL with PBS at pH 7.4 (BasalMedia, B320) and added to a 96-well microplate (Corning, 3590) at 100 μL/well. The plate was incubated at 4° C. overnight. After the liquid was discarded, 200 μL of 1% Casein blocking solution (Thermo, 37528) was added to each well for blocking, and the plate was incubated at 37° C. for 2 h. After the blocking was completed, the blocking solution was discarded, and the plate was washed 3 times with a PBST buffer (PBS at pH 7.4 containing 0.1% tween-20) for later use. A biotin-labeled ligand protein at a fixed concentration was mixed with the antibody or fusion protein diluted in gradient, pre-incubated at 37° C. for 30 min, and added to a blocked microplate. The plate was incubated at 37° C. for 1.5 h. After the incubation was completed, the plate was washed 3 times with PBST. 100 μL of streptavidin-HRP (Invitrogen, 434323, diluted at a ratio of 1:4000) was added to each well, and the plate was incubated at 37° C. for 1 h. The supernatant was removed, and the plate was washed 3 times with PBST. 100 μL of TMB chromogenic substrate (KPL, 5120-0077) was added to each well, and the plate was incubated at room temperature for 10-15 min. The reaction was stopped by adding 50 μL of 1 M H₂SO₄ to each well. The plate was read for absorbance values at 450 nm on a microplate reader, the curves for the inhibition of the binding of the ligands to the receptors were fitted with software, and the IC₅₀ values were calculated.
B1 gave an IC50 of 33.5 nM.
Binder B2 has an IC50 of 27.9 nM.
In the case of B3, the IC50 is reported as 22.5 nM.
B4 gave an IC50 of 44.7 nM.
With B5 the IC50 was 826 nM.
B6 was tested, and the IC50 was 42.9 nM.
Work on B7 yielded an IC50 of 25.4 nM.
B8 gave an IC50 of 18.5 nM.

Each binder was assayed against T1, human BAFF (10056-HNCH, Sino biological) (assay: ELISA, BAFF coated, fusion protein titrated).
Procedure: The binding activity of the antibodies or fusion proteins for BAFF, APRIL, and IL-12/23 p40 was assayed by the ELISA method (coating an antigen protein). The specific procedures were as follows:
A BAFF (Sino biological, 10056-HNCH), APRIL (R&D Systems, 5860-AP-010/CF), or IL-12/23 p40 (Sino biological, 10052-H08H) protein was diluted to 1 μg/mL with a PBS (BasalMedia, B320) buffer at pH 7.4, and added to a 96-well microplate (Corning, 3590) at 100 μL/well. The plate was incubated at 4° C. overnight. After the liquid was discarded, 300 μL of 5% skim milk (BD, 232100) diluted with PBS was added to each well for blocking, and the plate was incubated at 37° C. for 2 h. After the blocking was completed, the blocking solution was discarded, and the plate was washed 3 times with a PBST buffer (PBS at pH 7.4 containing 0.1% tween-20). 100 μL of test antibody or fusion protein solution diluted in a gradient was added to each well, and the plate was incubated at 37° C. for 1 h. After the incubation was completed, the plate was washed 3 times with PBST. […] The plate was washed 3 times with PBST. 100 μL of TMB chromogenic substrate (KPL, 5120-0077) was added to each well, and the plate was incubated at room temperature for 10-15 min. The reaction was stopped by adding 50 μL of 1 M H₂SO₄ to each well. The plate was read for absorbance values at 450 nm on a microplate reader, the binding curves of the antibodies to an antigen were fitted with software, and the EC₅₀ values were calculated.
Work on B9 yielded an EC50 of 0.382 nM.
B10 showed an EC50 of 0.279 nM.
For B11, the EC50 was 0.265 nM.
For B12, the EC50 was 0.469 nM.
